# Data: paper PMC3578790, “Tight Interconnection and Multi-Level Control of Arabidopsis MYB44 in MAPK Cascade Signalling”
# B1: MBSII (dsDNA)
# DNA 1: AGCTTCAAAAGTTAGTTACG
# DNA 2: CGTAACTAACTTTTGAAGCT
# Molecular target: MYB44 (Arabidopsis thaliana? (Arabidopsis, …, UniProt Q9FDW1 1-305))
# Assay: EMSA; no competitor; unlabelled MBSII 100x blocks the shift; unchanged with GST-MPK3 and/or GST-MKK4, with or without 0.5 mM ATP; 10 mM Tris pH 8.0, 5 mM MgCl2, 100 mM KCl, 0.02% Triton X-100, 0.1 mg/ml BSA, 0.25% Tween, 2.5 mM DTT, 3 ng/ul poly(dIdC); 30 min room temperature; 5% PAGE in 0.5x TBE or TAE (TAE main) at 4 C
# Settings: protein: recombinant; label: 5' Dy782 (Methods; called IRDye in Results); (only one strand printed)
# Chain of MYB44 (Arabidopsis thaliana? (Q9FDW1 whole entry): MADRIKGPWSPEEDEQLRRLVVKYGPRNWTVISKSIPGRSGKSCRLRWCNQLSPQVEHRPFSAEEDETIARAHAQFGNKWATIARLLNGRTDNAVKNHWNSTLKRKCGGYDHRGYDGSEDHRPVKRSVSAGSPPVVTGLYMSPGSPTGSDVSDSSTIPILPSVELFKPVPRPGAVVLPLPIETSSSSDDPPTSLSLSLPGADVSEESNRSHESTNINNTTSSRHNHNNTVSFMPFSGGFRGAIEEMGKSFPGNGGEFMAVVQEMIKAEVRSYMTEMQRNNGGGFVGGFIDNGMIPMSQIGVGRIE
binder,measurement,value
B1,binding result,binds
